According to patent publication US20080015165A1, “NOVEL POLYPEPTIDE” (KYOWA HAKKO KOGYO CO., LTD., priority 1998, published 2008):

Tests used:
[1] = Enzyme activity for monofucosylpoly-N-acetyllactosamine sugar chain P2, Namalwa cell extract, HPLC; type: biochemical; details: relative activity with the activity for P2 assumed to be 1
Procedure: (§1) Samples were allowed to react in 20 μl of an assay solution [50 mM cacodylate (pH 6.8), 5 mM ATP, 10 mM L-fucose, 75 μM […] (manufactured by SIGMA), 25 mM MnCl2, 15 μM fluorescently labeled sugar chain substrate, 6 μl of the cell lysate above] at 37° C. for 2 hours, followed by treatment at 100° C. for 3 minutes to stop the reaction. Next 200 μl of water was added to the samples, and the supernatant was obtained by centrifugation at 10,000×g for 5 minutes. Using an aliquot of the supernatant (10 μl), products were analyzed by HPLC under the following conditions.
(§2) HPLC: • Column—TSK-gel ODS-80TsQA column (4.6×250 mm; TOSOH CORPORATION) • Eluate—0.02 M ammonium acetate (pH 4.0) containing 7% methanol • Elution temperature—50° C. • Flow rate—1.0 ml/min. • Detection—Fluorescence spectrum photometer FB-920 (manufactured by JASCO Corporation) (excitation wavelength: 330 nm, radiation wavelength: 420 nm)

Namalwa cells = assay: Indirect fluorescent antibody staining of Namalwa cells expressing human Fuc-TIV or Fuc-TIX (VIM-2 and Le^x sugar chains); type: cell-based; details: compared to Namalwa cells transfected with pAMo
Procedure: Using an anti-VIM-2 sugar chain antibody (anti-CDw65 antibody, manufactured by Serotec) and anti-Le^x sugar chain antibodies [73-30 (manufactured by […] CORPORATION) and anti-CD15 antibody (C3D-1, manufactured by Dako)], indirect fluorescent antibody staining was performed for Namalwa cells expressing human Fuc-TIV or human Fuc-TIX, and for Namalwa cells transfected with the control vector pAMo, which were constructed in Example 9. The VIM-2 sugar chain is a sugar chain having the structure consisting of Galβ1-4GlcNAcβ1-3Galβ1-4(Fucα1-3)GlcNAc on non-reduced terminal of a sugar chain.
Indirect fluorescent antibody staining was performed according to the method described in Example 1 (3). Anti-VIM-2 sugar chain antibodies, 73-30 and C3D-1 were used after dilution at 1:50, 1:100, and 1:50.

[2] = Enzyme activity for a poly-N-acetyllactosamine sugar chain, Namalwa cell extract, HPLC; type: biochemical
Source text: Using a poly-N-acetyllactosamine sugar chain, it was examined that to which GlcNAc in the sugar chains, human Fuc-TIX and 5 types of human α1,3-fucosyltransferase (Fuc-TIII, Fuc-TIV, Fuc-TV, Fuc-TVI, and Fuc-TVII) that had been cloned so far transferred fucose.
Control plasmid (pAMo) and the human Fuc-TIX expression plasmid pAMo-FT9 were introduced into Namalwa cells according to the method shown in Example 1 (3), thereby obtaining stable transformants.
Namalwa cells expressing each of the other 5 types of human α1,3-fucosyltransferases (Fuc-TIII, Fuc-TIV, Fuc-TV, Fuc-TVI, and Fuc-TVII) were obtained according to the previous report (Glycoconjugate J., 13, 802-812, Biochem. Biophys. Res. Commun., 237, 131-137, 1997).
The resultant transformants (about 1×10^7) were collected in microtubes (1.5 ml, manufactured by Eppendolf), followed by centrifugation at 550×g for 7 minutes to collect the cells.
The collected cells were washed with 0.9 ml of PBS. The washed cells were suspended in 100 μl of a solution which consisted of 20 mM HEPES (pH 7.2) and 1% TrironX-100, then allowed to stand at 4° C. for 10 minutes. Subsequently the cells were disrupted using a ultrasonicator (Bioruptor; manufactured by COSMO BIO CO., LTD.)
After disruption of the cells, each supernatant was obtained by centrifugation at 550×g for 7 minutes and used as an enzyme sample. A poly-N-acetyllactosamine sugar chain (Galβ1-4GlcNAcβ1-3Galβ1-4GlcNAcβ1-3Galβ1-4GlcNAc) consisting of 6 sugars was fluorescently labeled with 2-aminobenzamide to make a sugar chain (Galβ1-4GlcNAcβ1-3Galβ1-4GlcNAcβ1-3Galβ1-4GlcNAc-2AB: abbreviated as S in FIGS. 13 and 15, and table 3), which was used as a substrate
Florescent labeling was performed using a Signal™ 2-AB glycan labeling kit (manufactured by Oxford GlycoScience). A poly-N-acetyllactosamine sugar chain (Galβ1-4GlcNAcβ1-3Galβ1-4GlcNAcβ1-3Galβ1-4GlcNAc) was prepared according to WO98/03524.
as §1, §2

[3] = In vitro α1,3-fucosyltransferase activity, COS-1 cell lysate, pyridylaminated substrate, HPLC; type: biochemical; details: activity of human Fuc-TVI for α2,3-sialylLNnT taken as 100; 25 μM substrate, 2 hours at 37° C.; normalized to transcript amount
[4] = as above; type: biochemical; details: activity of human Fuc-TVI for α2,3-sialylLNnT taken as 100; 25 μM substrate, 2 hours at 37° C.; normalized to transcript amount; remark: listed apart in the source
Procedure: Each α1,3-fucosyltransferase expression plasmid (15 μg) was introduced into 1×10^7 COS-1 cells.
This introduction was performed by electroporation method using a gene pulser (manufactured by Bio-Rad) according to the Bio-Rad's instructional manual attached thereto. At this time, 1 μg of a luciferase expression vector, which was constructed by inserting β-actin promoter into a Hind III site of a vector pSVOA/L [Experimental Medicine, 7, 96, (1989)] was co-introduced as an index of gene transfer efficiency.
After the gene introduction, COS-1 cells were dispensed into three dishes for cell culture with a diameter of 15 cm and then cultured for 48 hours.
The cells in the remaining two dishes were collected, suspended in a solution (20 mM HEPES (pH 7.4), 2% TrironX-100), then ultrasonicated for a short time period, thereby preparing cell lysate. The protein concentration of the cell lysate was measured using a micro BCA protein assay reagent kit (manufactured by PIERCE).
The enzymatic activities of luciferase and α1,3-fucosyltransferase were measured using the cell lysate. […]
Each of the substrates was allowed to react in assay solution with or without GDP-Fuc (sugar donator), then analyzed with HPLC. […]
The products were detected using a fluorescent spectrum photometer FP-920 (JASCO Corporation) at excitation wavelength of 320 nm and emission wavelength of 400 nm. […]

[5] = relative activity with the activity for P2 assumed to be 1
[6] = substrate S, relative value, total of products P1, P2 and P3 by each enzyme = 100%

| Molecule | Enzymatic activity, substrate P2, product P3 [1] | reactivity against the anti-VIM-2 sugar chain antibody (Namalwa cells) | Enzymatic activity, substrate S, product P1 [2, 5] | Enzymatic activity, substrate S, product P2 [2, 5] | Enzymatic activity, substrate S, product P3 [2, 5] | Production (%) P1 [2, 6] | Production (%) P2 [2, 6] | Production (%) P3 [2, 6] | Relative activity of α1,3-fucosyltransferases for substrate LNT [3] | Relative activity of α1,3-fucosyltransferases for substrate α2,3-sialyl LNnT [4] |
| --- | --- | --- | --- | --- | --- | --- | --- | --- | --- | --- |
| Fuc-TIV: known human α1,3-fucosyltransferase, previously cloned, expressed in Namalwa cells (protein, UniProt P22083 1-530, looked up) Alpha-(1,3)-fucosyltransferase …: MRRLWGAARKPSGAGWEKEWAEAPQEAPGAWSGRLGPGRSGRKGRAVPGWASWPAHLALAARPARHLGGAGQGPRPLHSGTAPFHSRASGERQRRLEPQLQHESRCRSSTPADAWRAEAALPVRAMGAPWGSPTAAAGGRRGWRRGRGLPWTVCVLAAAGLTCTALITYACWGQLPPLPWASPTPSRPVGVLLWWEPFGGRDSAPRPPPDCRLRFNISGCRLLTDRASYGEAQAVLFHHRDLVKGPPDWPPPWGIQAHTAEEVDLRVLDYEEAAAAAEALATSSPRPPGQRWVWMNFESPSHSPGLRSLASNLFNWTLSYRADSDVFVPYGYLYPRSHPGDPPSGLAPPLSRKQGLVAWVVSHWDERQARVRYYHQLSQHVTVDVFGRGGPGQPVPEIGLLHTVARYKFYLAFENSQHLDYITEKLWRNALLAGAVPVVLGPDRANYERFVPRGAFIHVDDFPSASSLASYLLFLDRNPAVYRRYFHWRRSYAVHITSFWDEPWCRVCQAVQRAGDRPKSIRNLASWFER | 1.0 | significant increase | 1.6 | 4.1 | 0.5 | 22.2% | 72.0% | 5.8% |  |  |
| Mouse Fuc-TIX: polypeptide of 359 amino acids (SEQ ID NO:1) encoded by mouse Fuc-TIX cDNA; novel α1,3-fucosyltransferase (protein, Mouse, novel α1,3-fucosyltransferase) MTSTSKGILRPFLIVCIILGCFMACLLIYIKPTNSWVFSPMESASSVLKMKNFFSTKTDYFNETTILVWVWPFGQTFDLTSCQAMFNIQGCHLTTDRSLYNKSHAVLIHHRDISWDLTNLPQQARPPFQKWIWMNLESPTHTPQKSGIEHLFNLTLTYRRDSDIQVPYGFLTVSTNPFVFEVPSKEKLVCWVVSNWNPEHARVKYYNELSKSIEIHTYGQAFGEYVNDKNLIPTISTCKFYLSFENSIHKDYITEKLYNAFLAGSVPVVLGPSRENYENYIPADSFIHVEDFNSPSELAKYLKEVDKNNKLYLSYFNWRKDFTVNLPRFWESHACLACDHVKRHQEYKSVGNLEKWFWN |  |  |  |  |  |  |  |  | 0 | 0 |
